The experiment addresses T1, human C-C motif chemokine receptor-like 2 (CCRL2) isoform b, on HEK-huCCRL2 cells (human, UniProt O00421 1-344).
T1 chain: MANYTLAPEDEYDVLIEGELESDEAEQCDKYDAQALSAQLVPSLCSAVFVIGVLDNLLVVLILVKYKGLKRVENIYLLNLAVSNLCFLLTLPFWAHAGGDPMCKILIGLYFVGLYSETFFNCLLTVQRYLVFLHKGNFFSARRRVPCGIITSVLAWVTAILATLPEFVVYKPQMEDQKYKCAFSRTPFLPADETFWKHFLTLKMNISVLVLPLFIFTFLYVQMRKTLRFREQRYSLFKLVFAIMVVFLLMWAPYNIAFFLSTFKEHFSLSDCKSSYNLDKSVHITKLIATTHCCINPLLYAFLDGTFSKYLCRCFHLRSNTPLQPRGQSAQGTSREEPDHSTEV
The experiment in a line: SPR. Background: In SPR one partner is held on a chip, and binding of the other changes the refractive index at the surface.

B1: recombinant active human chemerin (residues 21-157), unlabeled (ligand)
chain: ELTEAQRRGLQVALEEFHKHPPVQWAFQETSVESAVDTPFPAGIFVRLEFKLQQTSCRKRDWKKPECKVRPNGRKRKCLACIKLGSEDKVLGRLVHCPIETQVLREAEEHQETQCLRVQRAGEDPHSFYFPGQFAFS
By Kd is commonly meant the constant that tells how readily two partners part at equilibrium. Low values mean tighter binding, high ones weaker binding. Consider B1, for which the dissociation constant (Kd) came out at 7.48 nM.

Values taken from PMC9858354 (2023).
